The values that follow come from article PMC3518626 (Current biology : CB, 2012).

The data set concerns the molecule itself.

B1: Kip2-EGFP (natural protein, yeast, UniProt P28743 1-706, looked up)
chain: MIQKMSPSLRRPSTRSSSGSSNIPQSPSVRSTSSFSNLTRNSIRSTSNSGSQSISASSTRSNSPLRSVSAKSDPFLHPGRIRIRRSDSINNNSRKNDTYTGSITVTIRPKPRSVGTSRDHVGLKSPRYSQPRSNSHHGSNTFVRDPWFITNDKTIVHEEIGEFKFDHVFASHCTNLEVYERTSKPMIDKLLMGFNATIFAYGMTGSGKTFTMSGNEQELGLIPLSVSYLFTNIMEQSMNGDKKFDVIISYLEIYNERIYDLLESGLEESGSRISTPSRLYMSKSNSNGLGVELKIRDDSQYGVKVIGLTERRCESSEELLRWIAVGDKSRKIGETDYNARSSRSHAIVLIRLTSTNVKNGTSRSSTLSLCDLAGSERATGQQERRKEGSFINKSLLALGTVISKLSADKMNSVGSNIPSPSASGSSSSSGNATNNGTSPSNHIPYRDSKLTRLLQPALSGDSIVTTICTVDTRNDAAAETMNTLRFASRAKNVALHVSKKSIISNGNNDGDKDRTIELLRRQLEEQRRMISELKNRSNIGEPLTKSSNESTYKDIKATGNDGDPNLALMRAENRVLKYKLENCEKLLDKDVVDLQDSEIMEIVEMLPFEVGTLLETKFQGLESQIRQYRKYTQKLEDKIMALEKSGHTAMSLTGCDGTEVIELQKMLERKDKMIEALQSAKRLRDRALKPLINTQQSPHPVVDNDK
Consider B1, for which the “stoichiometry N” value was 2.
